The values that follow come from PMC10707181, “Neuronal Scaffold Protein ARMS Interacts with Synaptotagmin-4 C2AB through the Ankyrin Repeat Domain with an Unexpected Mode” (International Journal of Molecular Sciences, 2023).

To fix the notation:
B1: ARMS ankyrin repeats 1–11 (R1-11, residues 1–365) [rat] / Syt4 132–425 [human] (parent complex)
chain 1: MSVLISQSVINYVEEENIPALKALLEKCKDVDERNECGQTPLMLAAEQGNVEIVKELLKNGANCNLEDLDNWTALISASKEGHIHIVEELLKSGASLEHRDMGGWTALMWACYKGRTDVVELLLSHGANPSVTGLYSVYPIIWAAGRGHADIVHLLLQNGAKVNCSDKYGTTPLVWAARKGHLECVKHLLAMGADVDQEGANSMTALIVAVKGGYTQSVKEILKRNPNVNLTDKDGNTALMIASKEGHIEIVQDLLDAGTYVNIPDRSGDTVLIGAVRGGHVEIVRALLQKYADIDIRGQDNKTALYWAVEKGNATMVRDILQCNPDTEICTKDGETPLIKATKMRNIEVVELLLDKGAKVSAVD
chain 2: ESVSPESLKSSTSLTSEEKQEKLGTLFFSLEYNFERKAFVVNIKEARGLPAMDEQSMTSDPYIKMTILPEKKHKVKTRVLRKTLDPAFDETFTFYGIPYTQIQELALHFTILSFDRFSRDDIIGEVLIPLSGIELSEGKMLMNREIIKRNVRKSSGRGELLISLCYQSTTNTLTVVVLKARHLPKSDVSGLSDPYVKVNLYHAKKRISKKKTHVKKCTPNAVFNELFVFDIPCEGLEDISVEFLVLDSERGSRNEVIGQLVLGAAAEGTGGEHWKEICDYPRRQIAKWHVLCDG

In this assay the parent is B1. Put plainly: ITC; parent: 1.2e+04 nM.
For chain 2 K148A, chain 2 R149A, the Kd was determined as 9 µM.
In the case of chain 2 R157A, the Kd was determined as 10 µM.
The result for chain 2 K148A, chain 2 R149A, chain 2 R152A reads 19 µM; that for chain 2 R152A, 4 µM; that for chain 2 Q55A, 3 µM.
For the variant chain 2 K153A, the dissociation constant (Kd) worked out at 3 µM.
Consider chain 2 R152A, chain 2 K153A, for which the Kd worked out at 4 µM.
